Assay [1] deals with T1, CD3 on the surface of human T cells (human, UniProt P07766 23-207).
T1 construct: whole, on cells; Part of the CD3/TCR complex on cells; also called CD3 epsilon
The experiment in a line: flow cytometry on isolated T cells, anti-human Fc secondary. How it is done: (§1) Binding of exemplary multispecific constructs containing an antigen-binding domain directed against B7H3 were assessed for binding to B7H3 positive A375 tumor cells or primary T-cells. The constructs were generated containing antigen-binding domain(s) that were either sdAbs or a FABs, and that were positioned either only N-terminal to the Fc or both N-terminal to the Fc and C-terminal to the anti-CD3 binding domain (see FIGS. 30A and 30C and Table E5). Among the various formats of constructs tested included: sdAb-Fc-dsFV-sdAb (cx3072, cx5952) sdAb-Fc-FV (cx6079), sdAb-Fc-dsFV (cs6080, cx6081), MAB-FV (cx5067) and MAB-dsFV (cx6083, cx6084), where the FV represents the anti-CD3 binding domain composed of VH and VL domain pairs and “ds” notes disulfide stabilized via an engineered interdomain disulfide bond.
(§2) Binding was assessed as described above via flow cytometry using a fluorophore-conjugated anti-human Fc secondary antibody. cx3072 bound to A375 cells with high affinity (FIG. 31A) but not to isolated T-cells (FIG. 31B). […] The B7H3 -targeting sdAb containing constructs (cx5952, cx6079, cx6080, and cx6081) bound to B7H3 positive cells with similar affinities (depicted in FIG. 31E), with cx5952 displaying higher maximal binding. cx6079, cx6080 and cx6081 contain two identical B7H3-targeting sdAbs, whereas cx5952, and cx3072 contain two distinct B7H3-targeting sdAb that bind different epitopes. The MAB-FV, cx5067, contains two identical B7H3-targeting FAB domains.

In assay [2] the target is T2, human B7H3 (CD276) on the cell surface (human, UniProt Q5ZPR3 29-534).
T2 construct: B7H3 on A375 and other B7H3-positive or transfected cells
T2 sequence: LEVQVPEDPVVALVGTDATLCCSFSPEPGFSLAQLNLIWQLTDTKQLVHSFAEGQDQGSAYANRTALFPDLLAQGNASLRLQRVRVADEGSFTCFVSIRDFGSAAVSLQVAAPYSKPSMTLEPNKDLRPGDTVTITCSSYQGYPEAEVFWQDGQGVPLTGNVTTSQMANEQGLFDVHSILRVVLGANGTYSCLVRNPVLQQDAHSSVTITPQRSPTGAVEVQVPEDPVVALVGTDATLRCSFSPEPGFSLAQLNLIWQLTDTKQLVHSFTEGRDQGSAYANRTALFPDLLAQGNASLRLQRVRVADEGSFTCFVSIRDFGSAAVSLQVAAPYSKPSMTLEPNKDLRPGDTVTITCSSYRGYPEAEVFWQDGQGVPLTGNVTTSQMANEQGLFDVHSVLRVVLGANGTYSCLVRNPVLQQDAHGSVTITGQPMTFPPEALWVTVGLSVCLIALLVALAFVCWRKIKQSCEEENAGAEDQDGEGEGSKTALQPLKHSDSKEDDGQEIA
Kind of assay: flow cytometry on A375 cells (B7H3+), anti-human Fc secondary. Here is the method: as §1, §2

The target in assay [3] is T1, CD3 on the surface of human T cells. Kind of assay: flow cytometry on primary human T cells, anti-human Fc secondary. How it is done: as §1, §2

T1 sequence (P07766 23-207): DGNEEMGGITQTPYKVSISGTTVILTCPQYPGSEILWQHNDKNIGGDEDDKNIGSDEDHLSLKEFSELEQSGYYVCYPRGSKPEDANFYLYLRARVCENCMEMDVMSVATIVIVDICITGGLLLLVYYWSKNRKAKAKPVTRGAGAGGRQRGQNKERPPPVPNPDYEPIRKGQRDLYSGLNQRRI

B1: cx5187 (bispecific antibody)
chain 1: EVQLVESGGGEVQPGGSLRLSCAASGFSFSSNVMMWVRQAPGKGLEWVSTIYSSGTGTFYAESVKGRFTISRDNAKNTLYLQMSSLRPEDTAVYYCATSGPVRGWGPRSQGTLVTVKPPGGGGDKTHTCPPCPAPGGPSVFLFPPKPKDTLMISRTPEVTCVVVDVSHEDPEVKFNWYVDGVEVHNAKTKPREEQYNSTYRVVSVLTVLHQDWLNGKEYKCKVSNKALPAPIEKTISKAKGQPREPQVYTLPPCRDELTKNQVSLWCLVKGFYPSDIAVEWESNGQPENNYKTTPPVLDSDGSFFLYSKLTVDKSRWQQGNVFSCSVMHEALHNHYTQKSLSLSPTGGGGGSGGGGGSGGGGGSEVQLVESGGGLVQPGGSLRLSCAASGFTFNTYAMNWVRQAPGKCLEWVARIRSKYNNYATYYADSVKGRFTISRDDAKNTLYLQMSSLRAEDTAVYYCVRHGNFGNSYVSWFAYWGQGTLVTVKPGGGGEVQLVESGGGEVQPGGSLRLSCAASGFTFSSYHMSWFRQAPGKQREPVATSHHGGTTNYAGSVKGRFTISRDNAKNTVYLQMNTLRAEDTAVYYCKADHGYQGRGYWGQGTLVTVKP
chain 2: DKTHTCPPCPAPGGPSVFLFPPKPKDTLMISRTPEVTCVVVDVSHEDPEVKFNWYVDGVEVHNAKTKPREEQYNSTYRVVSVLTVLHQDWLNGKEYKCKVSNKALPAPIEKTISKAKGQPREPQVCTLPPSRDELTKNQVSLSCAVKGFYPSDIAVEWESNGQPENNYKTTPPVLDSDGSFFLVSKLTVDKSRWQQGNVFSCSVMHEALHNRYTQKSLSLSPTGGGGGSGGGGGSGGGGGSQAVVTQEPSLTVSPGGTVTLTCGSSTGAVTTSNYANWVQQKPGQAFRGLIGGTNKRAPGVPARFSGSLLGGKAALTISGAQPEDEADYYCALWYSNHWVFGCGTKLEIKGGGGEVQLLESGGGEVQPGGSLRLSCAASGFSFSINAMGWYRQAPGKRREFVAAIESGRNTVYAESVKGRFTISRDNAKNTVYLQMSSLRAEDTAVYYCGLLKGNRVVSPSVAYWGQGTLVTVKP
As for B1, the binding result in assay [1] was “no binding”; in assay [2] it was “binds”.

B2: cx5873 (bispecific antibody)
chain 1: DKTHTCPPCPAPGGPSVFLFPPKPKDTLMISRTPEVTCVVVDVSHEDPEVKFNWYVDGVEVHNAKTKPREEQYNSTYRVVSVLTVLHQDWLNGKEYKCKVSNKALPAPIEKTISKAKGQPREPQVYTLPPCRDELTKNQVSLWCLVKGFYPSDIAVEWESNGQPENNYKTTPPVLDSDGSFFLYSKLTVDKSRWQQGNVFSCSVMHEALHNHYTQKSLSLSPTGGGGGSGGGGGSGGGGGSEVQLVESGGGLVQPGGSLRLSCAASGFTFNTYAMNWVRQAPGKCLEWVARIRSKYNNYATYYADSVKGRFTISRDDAKNTLYLQMSSLRAEDTAVYYCVRHGNFGNSYVSWFAYWGQGTLVTVKPGGGGEVQLVESGGGEVQPGGSLRLSCAASGFTFSSYHMSWFRQAPGKQREPVATSHHGGTTNYAGSVKGRFTISRDNAKNTVYLQMNTLRAEDTAVYYCKADHGYQGRGYWGQGTLVTVKP
chain 2: DKTHTCPPCPAPGGPSVFLFPPKPKDTLMISRTPEVTCVVVDVSHEDPEVKFNWYVDGVEVHNAKTKPREEQYNSTYRVVSVLTVLHQDWLNGKEYKCKVSNKALPAPIEKTISKAKGQPREPQVCTLPPSRDELTKNQVSLSCAVKGFYPSDIAVEWESNGQPENNYKTTPPVLDSDGSFFLVSKLTVDKSRWQQGNVFSCSVMHEALHNRYTQKSLSLSPTGGGGGSGGGGGSGGGGGSQAVVTQEPSLTVSPGGTVTLTCGSSTGAVTTSNYANWVQQKPGQAFRGLIGGTNKRAPGVPARFSGSLLGGKAALTISGAQPEDEADYYCALWYSNHWVFGCGTKLEIKGGGGEVQLLESGGGEVQPGGSLRLSCAASGFSFSINAMGWYRQAPGKRREFVAAIESGRNTVYAESVKGRFTISRDNAKNTVYLQMSSLRAEDTAVYYCGLLKGNRVVSPSVAYWGQGTLVTVKP
notes: first-named used
As for B2, the binding result in assay [1] is listed as “no binding”; in assay [2] it was “binds”.

B3: cx5823 (bispecific antibody)
chain 1: EVQLVESGGGEVQPGGSLRLSCAASGFSFSSNVMMWVRQAPGKGLEWVSTIYSSGTGTFYAESVKGRFTISRDNAKNTLYLQMSSLRPEDTAVYYCATSGPVRGWGPRSQGTLVTVKPPGGGGDKTHTCPPCPAPGGPSVFLFPPKPKDTLMISRTPEVTCVVVDVSHEDPEVKFNWYVDGVEVHNAKTKPREEQYNSTYRVVSVLTVLHQDWLNGKEYKCKVSNKALPAPIEKTISKAKGQPREPQVYTLPPCRDELTKNQVSLWCLVKGFYPSDIAVEWESNGQPENNYKTTPPVLDSDGSFFLYSKLTVDKSRWQQGNVFSCSVMHEALHNHYTQKSLSLSPGGGGGGSGGGGGSGGGGGSEVQLVESGGGLVQPGGSLRLSCAASGFTFNTYAMNWVRQAPGKCLEWVARIRSKYNNYATYYADSVKGRFTISRDDAKNTLYLQMSSLRAEDTAVYYCVRHGNFGNSYVSWFAYWGQGTLVTVKPGGGGEVQLVESGGGEVQPGGSLRLSCAASGFTFSSYHMSWFRQAPGKQRELVATSHHGGTTNYAGSVKGRFTISRDNAKNTVYLQMNTLRAEDTAVYYCKADHGYQGRGYWGQGTLVTVKP
chain 2: DKTHTCPPCPAPGGPSVFLFPPKPKDTLMISRTPEVTCVVVDVSHEDPEVKFNWYVDGVEVHNAKTKPREEQYNSTYRVVSVLTVLHQDWLNGKEYKCKVSNKALPAPIEKTISKAKGQPREPQVCTLPPSRDELTKNQVSLSCAVKGFYPSDIAVEWESNGQPENNYKTTPPVLDSDGSFFLVSKLTVDKSRWQQGNVFSCSVMHEALHNRYTQKSLSLSPGGGGGGSGGGGGSGGGGGSQAVVTQEPSLTVSPGGTVTLTCGSSTGAVTTSNYANWVQQKPGQAFRGLIGGTNKRAPGVPARFSGSLLGGKAALTISGAQPEDEADYYCALWYSNHWVFGCGTKLEIKGGGGEVQLLESGGGEVQPGGSLRLSCAASGFSFSINAMGWYRQAPGKRREFVAAIESGRNTVYAESVKGRFTISRDNAKNTVYLQMSSLRAEDTAVYYCGLLKGNRVVSPSVAYWGQGTLVTVKP
As for B3, the binding result is “no binding” in assay [1] and “binds” in assay [2].

B4: cx6084 (bispecific antibody, human IgG1, kappa)
chain 1: EVQLVESGGGLVQPGGSLRLSCAASGFTFSSFGMHWVRQAPGKGLEWVAYISSDSSAIYYADTVKGRFTISRDNAKNSLYLQMNSLRDEDTAVYYCGRGRENIYYGSRLDYWGQGTTVTVSSASTKGPSVFPLAPSSKSTSGGTAALGCLVKDYFPEPVTVSWNSGALTSGVHTFPAVLQSSGLYSLSSVVTVPSSSLGTQTYICNVNHKPSNTKVDKKVEPKSCDKTHTCPPCPAPPVAGPSVFLFPPKPKDTLMISRTPEVTCVVVDVKHEDPEVKFNWYVDGVEVHNAKTKPREEEYNSTYRVVSVLTVLHQDWLNGKEYKCKVSNKALPAPIEKTISKAKGQPREPQVYTLPPSREEMTKNQVSLTCDVSGFYPSDIAVEWESDGQPENNYKTTPPVLDSDGSFFLYSKLTVDKSRWEQGDVFSCSVMHEALHNHYTQKSLSLSPGKGGGGSGGGGSGGGGSEVQLVESGGGLVQPGGSLRLSCAASGFTFNTYAMNWVRQAPGKCLEWVARIRSKYNNYATYYADSVKGRFTISRDDAKNTLYLQMSSLRAEDTAVYYCVRHGNFGNSYVSWFAYWGQGTLVTVKP
chain 2: EVQLVESGGGLVQPGGSLRLSCAASGFTFSSFGMHWVRQAPGKGLEWVAYISSDSSAIYYADTVKGRFTISRDNAKNSLYLQMNSLRDEDTAVYYCGRGRENIYYGSRLDYWGQGTTVTVSSASTKGPSVFPLAPSSKSTSGGTAALGCLVKDYFPEPVTVSWNSGALTSGVHTFPAVLQSSGLYSLSSVVTVPSSSLGTQTYICNVNHKPSNTKVDKKVEPKSCDKTHTCPPCPAPPVAGPSVFLFPPKPKDTLMISRTPEVTCVVVDVKHEDPEVKFNWYVDGVEVHNAKTKPREEQYNSTYRVVSVLTVLHQDWLNGKEYKCKVSNKALPAPIEKTISKAKGQPREPQVYTLPPSREQMTKNQVKLTCLVKGFYPSDIAVEWESNGQPENNYKTTPPVLDSDGSFFLYSKLTVDKSRWQQGNVFSCSVMHEALHNHYTQKSLSLSPGKGGGGSGGGGSGGGGSQAVVTQEPSLTVSPGGTVTLTCGSSTGAVTTSNYANWVQQKPGQAFRGLIGGTNKRAPGVPARFSGSLLGGKAALTISGAQPEDEADYYCALWYSNHWVFGCGTKLEIK
light: DIQLTQSPSFLSASVGDRVTITCKASQNVDTNVAWYQQKPGKAPKALIYSASYRYSGVPSRFSGSGSGTDFTLTISSLQPEDFATYYCQQYNNYPFTFGQGTKLEIKRTVAAPSVFIFPPSDEQLKSGTASVVCLLNNFYPREAKVQWKVDNALQSGNSQESVTEQDSKDSTYSLSSTLTLSKADYEKHKVYACEVTHQGLSSPVTKSFNRGEC
notes: disulfide-stabilized anti-CD3 Fv; also called MAB-dsFV
Take B4: the binding result in assay [2] was “binds”; in assay [3], “no binding”.
